Laboratory results from patent publication US20220204583A1 (WISCONSIN ALUMNI RESEARCH FOUNDATION, published 2022).

B1: VLR-Fc-46 (Fc fusion)
chain: ACPSQCSCSGTTVDCSGKSLASVPTGIPTTTRWLHLHRNQLTKLEPGVFDSLTQLTYLNLGGNQLTALPVGVFDKLTNLKELKLYSNQLQALSEGLFDRLGKLQHLDLSKNQLKSIPHGAFDRLSSLTHAYLFGNPWDCECRDIMYLRNWVADHTSIVMRWDGKAVNDPDSAKCAGTNTPVRAVTEASTSPSKCPGYVAT
notes: Dimeric recombinant VLR-rabbit IgG-Fc fusion secreted from HEK293F cells; also called VLR 46; VLR46; not shown: rabbit IgG-Fc from vector pIRES-VLR-Fc, C-terminal of the VLR
B2: VLR-Fc-30 (Fc fusion)
chain: ACPSQCSCSGTTVDCSGKSLASVPTGIPTTTQILRLYRNQITKLEPGVFDSLTQLTYLNLGGNQLTALPVGVFDKLTNLKELKLYSNQLQALSEGLFDRLGKLQHLDLSKNQLKSIPHGAFDRLSSLTHAYLFGNPWDCECRDIMYLRNWVADHTSIVMRWDGKAVNDPDSAKCAGTNTPVRAVTEASTSPSKCPGYVAT
notes: Dimeric recombinant VLR-rabbit IgG-Fc fusion secreted from HEK293F cells; also called VLR 30; VLR30; not shown: rabbit IgG-Fc from vector pIRES-VLR-Fc, C-terminal of the VLR
B3: VLR-Fc-11 (Fc fusion)
chain: ACPSQCSCSGTEVRCESRSLASVPAGIPTTTRRLHLHRNQLTKLEPGVFDSLTQLTYLNLGGNQLTALPVGVFDKLTNLKELKLYSNQLQALSEGLFDRLGKLQHLDLSKNQLKSIPHGAFDRLSSLTHAYLFGNPWDCECRDIMYLRNWVADHTSIVMRWDGKAVNDPDSAKCAGTNTPVRAVTEASTSPSKCPGYVAT
notes: Dimeric recombinant VLR-rabbit IgG-Fc fusion secreted from HEK293F cells; also called VLR 11; VLR11; not shown: rabbit IgG-Fc from vector pIRES-VLR-Fc, C-terminal of the VLR

Assays:
Assay in all cases: competition of live bEnd.3 (MBEC) cell surface binding by excess recombinant receptor ectodomain
[1] = target: T1, recombinant transferrin receptor ectodomain (UniProt Q62351 89-763, limits assumed)
T1 construct: extracellular domain; Bought; also called rTfR; TfR
T1 sequence (Q62351 89-763 limits assumed): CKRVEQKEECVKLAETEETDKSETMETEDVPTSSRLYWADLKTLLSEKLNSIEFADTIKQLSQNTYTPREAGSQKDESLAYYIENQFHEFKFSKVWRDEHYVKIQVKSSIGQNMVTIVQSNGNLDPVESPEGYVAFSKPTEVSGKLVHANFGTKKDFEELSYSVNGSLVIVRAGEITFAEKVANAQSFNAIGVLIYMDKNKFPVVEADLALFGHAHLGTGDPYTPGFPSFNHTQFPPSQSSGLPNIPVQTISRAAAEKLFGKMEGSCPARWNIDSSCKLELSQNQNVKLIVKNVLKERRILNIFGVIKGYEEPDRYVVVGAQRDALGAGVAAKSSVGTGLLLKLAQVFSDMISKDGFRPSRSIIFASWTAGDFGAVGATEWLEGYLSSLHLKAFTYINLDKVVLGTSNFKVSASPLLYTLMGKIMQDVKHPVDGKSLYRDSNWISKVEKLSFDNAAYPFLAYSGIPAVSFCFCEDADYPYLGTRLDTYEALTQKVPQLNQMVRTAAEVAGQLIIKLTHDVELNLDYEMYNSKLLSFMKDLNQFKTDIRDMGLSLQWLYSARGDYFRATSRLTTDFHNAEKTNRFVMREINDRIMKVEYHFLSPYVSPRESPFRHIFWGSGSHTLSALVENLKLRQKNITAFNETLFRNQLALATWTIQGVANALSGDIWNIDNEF
Protocol: (§1) Competition assay. 2 μM recombinant receptor ecto-domain proteins, rIR (R&D systems, 7544-MR), rLDLR (R&D systems, 2255-LD), and rTfR (Sino Biologics, 50741-M07H) were incubated with 200 nM VLR-Fc proteins in serum-free complete growth media for 30 minutes and then applied to serum-starved bEnd.3 cells in 96-well plates to allow for VLR-Fc binding to cell surface receptors. Plates were incubated at 4° C. for 2 hours. After extensive washing with ice cold PBS cells were fixed with 2% PFA, permeabilized, labeled with IRDye reagents, and analyzed as described above.

[2] = target: T2, recombinant insulin receptor ectodomain (UniProt P15208 28-946, limits assumed)
T2 construct: extracellular domain; Bought; The chain make-up (alpha/beta) is not described; also called rIR; IR
T2 sequence (P15208 28-946 limits assumed): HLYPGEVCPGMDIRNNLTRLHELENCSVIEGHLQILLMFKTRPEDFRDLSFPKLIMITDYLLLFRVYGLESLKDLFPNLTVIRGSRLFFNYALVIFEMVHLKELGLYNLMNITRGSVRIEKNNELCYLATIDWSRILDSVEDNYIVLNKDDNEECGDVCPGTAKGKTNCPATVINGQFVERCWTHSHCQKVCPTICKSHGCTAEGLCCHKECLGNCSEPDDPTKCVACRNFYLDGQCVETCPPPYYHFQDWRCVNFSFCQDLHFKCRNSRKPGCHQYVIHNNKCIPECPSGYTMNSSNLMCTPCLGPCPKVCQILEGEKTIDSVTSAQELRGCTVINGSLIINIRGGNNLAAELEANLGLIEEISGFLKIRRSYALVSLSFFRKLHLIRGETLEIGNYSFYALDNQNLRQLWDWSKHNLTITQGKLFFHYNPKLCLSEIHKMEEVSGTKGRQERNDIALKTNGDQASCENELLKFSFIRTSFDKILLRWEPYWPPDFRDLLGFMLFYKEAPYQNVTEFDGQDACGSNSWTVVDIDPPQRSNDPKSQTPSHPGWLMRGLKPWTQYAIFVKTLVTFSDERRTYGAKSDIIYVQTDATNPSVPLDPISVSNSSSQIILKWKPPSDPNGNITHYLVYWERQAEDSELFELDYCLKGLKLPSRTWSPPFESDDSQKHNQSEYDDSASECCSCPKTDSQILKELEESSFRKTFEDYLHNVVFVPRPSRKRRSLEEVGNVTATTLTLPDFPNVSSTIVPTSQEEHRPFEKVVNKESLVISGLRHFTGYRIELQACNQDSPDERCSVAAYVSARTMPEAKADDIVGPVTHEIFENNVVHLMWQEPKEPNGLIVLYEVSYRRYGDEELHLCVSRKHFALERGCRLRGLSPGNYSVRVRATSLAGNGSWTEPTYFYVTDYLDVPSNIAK
Protocol: as §1

[3] = target: T3, recombinant low-density lipoprotein receptor ectodomain (UniProt P35951 22-790, limits assumed)
T3 construct: extracellular domain; Bought; also called rLDLR; LDLR
T3 sequence (P35951 22-790 limits assumed): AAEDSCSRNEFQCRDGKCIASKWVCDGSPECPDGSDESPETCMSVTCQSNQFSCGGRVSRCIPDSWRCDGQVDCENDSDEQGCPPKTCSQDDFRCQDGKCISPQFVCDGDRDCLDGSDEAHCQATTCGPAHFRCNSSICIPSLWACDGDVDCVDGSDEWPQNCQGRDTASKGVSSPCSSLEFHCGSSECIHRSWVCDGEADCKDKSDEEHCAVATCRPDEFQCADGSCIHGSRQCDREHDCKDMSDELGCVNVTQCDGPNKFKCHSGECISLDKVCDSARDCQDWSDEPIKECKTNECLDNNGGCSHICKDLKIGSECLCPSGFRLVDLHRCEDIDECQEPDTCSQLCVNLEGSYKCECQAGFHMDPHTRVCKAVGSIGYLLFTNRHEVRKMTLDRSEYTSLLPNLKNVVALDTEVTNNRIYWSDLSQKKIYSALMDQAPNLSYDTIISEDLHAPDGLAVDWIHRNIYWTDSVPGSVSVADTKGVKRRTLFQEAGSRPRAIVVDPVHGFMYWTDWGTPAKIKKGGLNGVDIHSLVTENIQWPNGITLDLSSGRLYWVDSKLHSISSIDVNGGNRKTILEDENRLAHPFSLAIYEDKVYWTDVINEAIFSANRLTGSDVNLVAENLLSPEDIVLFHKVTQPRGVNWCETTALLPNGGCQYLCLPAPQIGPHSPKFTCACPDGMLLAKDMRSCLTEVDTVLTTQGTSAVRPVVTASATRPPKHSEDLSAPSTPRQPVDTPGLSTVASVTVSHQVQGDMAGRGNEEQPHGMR
Protocol: as §1

Binder | binding result [1] | binding result [2] | binding result [3]
B1 | no binding (tested: 2 µM receptor ectodomain, 200 nM VLR-Fc) | no binding (tested: 2 µM receptor ectodomain, 200 nM VLR-Fc) | no binding (tested: 2 µM receptor ectodomain, 200 nM VLR-Fc)
B2 | no binding (tested: 2 µM receptor ectodomain, 200 nM VLR-Fc) | no binding (tested: 2 µM receptor ectodomain, 200 nM VLR-Fc) | no binding (tested: 2 µM receptor ectodomain, 200 nM VLR-Fc)
B3 | no binding (tested: 2 µM receptor ectodomain, 200 nM VLR-Fc) | no binding (tested: 2 µM receptor ectodomain, 200 nM VLR-Fc) | no binding (tested: 2 µM receptor ectodomain, 200 nM VLR-Fc)
